Target: p27^Kip1–His6 (UniProt P46527)
Sequence of UniProt P46527 (P46527 whole entry): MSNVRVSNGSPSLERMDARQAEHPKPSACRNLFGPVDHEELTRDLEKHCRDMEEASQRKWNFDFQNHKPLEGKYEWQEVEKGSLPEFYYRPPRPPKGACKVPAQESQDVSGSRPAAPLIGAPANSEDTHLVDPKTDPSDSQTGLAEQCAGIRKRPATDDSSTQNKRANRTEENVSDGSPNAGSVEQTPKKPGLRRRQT

in vitro degradation of purified p27^Kip1–His6 (1 μg) by purified β1–His6 (2 μg) at 37°C, immunoblot, time course up to 90 min: 40%
Substance: β1–His6 (full-length β1, wild type) (from UniProt P28072 1-239) (enzyme)

Source: article PMC3712487
